Target: HAdV-52 long fiber knob (human adenovirus type 52 (HAdV-52))
Experiment: SPR

B1: Recombinant human CAR (CXADR Fc chimera; full length extracellular D1D2 domain) (Fc fusion)
chain: LSITTPEEMIEKAKGETAYLPCKFTLSPEDQGPLDIEWLISPADNQKVDQVIILYSGDKIYDDYYPDLKGRVHFTSNDLKSGDASINVTNLQLSDIGTYQCKVKKAPGVANKKIHLVVLVKPSGARCYVDGSEEIGSDFKIKCEPKEGSLPLQYEWQKLSDSQKMPTSWLAEMTSSVISVKNASSEYSGTYSCTVRNRVGSDQCLLRLNVVPPSNKAG
koff: 0.00221 s⁻¹
